Measured values reported in the supplement of paper PMC12764529.
± gives the half width of the 95% confidence interval.

Key:
[1] = folding stability dG unfold from trypsin proteolysis; higher = more stable
In short: (§1)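 Mini-proteins designed to be under 80 residues and free of cysteine were carried in a PA-tagged cDNA display construct and digested with trypsin and with chymotrypsin. Each protease was applied at 11 threefold-diluted concentrations, alongside a no-protease condition, before sequencing. K50 came from Bayesian fitting of the sequencing counts, and unfolding free energy was obtained by comparing it with a sequence-predicted unfolded-state K50 and a shared folded-state K50, for each protease separately or for both together. Designs were retained only if their AlphaFold2 dimer inter-PAE exceeded 15.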

[2] = folding stability dG unfold from chymotrypsin proteolysis; higher = more stable
In short: as §1

[3] = folding stability dG unfold (combined trypsin and chymotrypsin); higher = more stable
In short: as §1

Sequence | folding stability dG unfold [1] [kcal/mol] | folding stability dG unfold [2] [kcal/mol] | folding stability dG unfold [3] [kcal/mol]
SAGGSAGGSKPIKTKATIPLPNGKTITADVEIVVLPDGNILLRVPSGKVILVPPNYPVTFEDASAGGSAGGS [r20_227_TrMRF] | 1.71 ± 0.025 | 1.62 ± 0.021 | 1.67 ± 0.036
SAGGMKIVSVEFDEETGEVYVKIEVPTPEELEALKKLPGEVRIVDKETGEVKVIKVKSIEELLELLKKSAGG [r13_604_TrROS_Hall] | 1.86 ± 0.086 | 2.18 ± 0.071 | 2.05 ± 0.15
SAGGSASMIFADDPAQAEAYVKPLFPNGPPFDIVELSEEEGKELVEKLKKEGKPYKVIVIKDPSKPSAGGSA [r15_567_JUSTAS] | 0.192 ± 0.19 | 0.507 ± 0.42 | 0.341 ± 0.3
SAGGSAGGSASSMVTVTVSVSPDEGDEEVAKEIAKELGRPDAKVTKITYDPATGTLTITLVDSAGGSAGGSA [r18_481_JUSTAS] | 1.61 ± 0.067 | 1.53 ± 0.062 | 1.58 ± 0.11
SMKKTIIIKVKKEDMTPEEIAKKLAELGYEVEIVDVEYDEETEEVYITVEIYDENGELIEKIEIKLPRKDSA [r9_879_TrROS_Hall] | 0.825 ± 0.16 | 0.956 ± 0.17 | 0.916 ± 0.42
SAGFVMIKIELENPGNGKERELSIIIPYKSQEDARHIAEEIARELAKNGWKIKKIEVMVMPIPPPPDDPSAG [r5_660_TrROS] | 3.95 ± 0.12 | 5.29 ± 0.16 | 5.1 ± 0.24
SAGKVKLTIMIHPMRKNGKPRYYVMVKIEIPGGPKAEIMFPFDSPEQAKNLLEDLGLKVEPEDISIMRWSAG [r5_233_TrROS] | 1.89 ± 0.022 | 1.94 ± 0.12 | 1.94 ± 0.051
SAGGSGSTTPETRTEPSPGGTTTEVRTDVHTLPDAETVEITVTRGGRTITLTASPAEAATLRVTPGASAGGS [r8_257_JUSTAS] | -0.555 ± 0.61 | -0.614 ± 0.62 | -0.436 ± 0.51
SMIKIKVVEKKDGKYKIKIENKKTGKTFEFEFDTKEEAEEAEKNPGKTIYLSEEALKKLKKENITKVEKVSA [r9_390_TrROS_Hall] | 0.442 ± 0.065 | 1.24 ± 0.087 | 1.11 ± 0.15
SAGELKITIAVFRPVEKDENGKEVKVELVEVKTITISKEDLTEEEILKLAEELKKKFPNTVILVTIEPSAGG [r19_369_TrROS_Hall] | 2.59 ± 0.23 | 2.93 ± 0.19 | 2.91 ± 0.19
SAGGSAGGLPPGQSIEIFIFSMFPTPNGNLNLEMIQITIRIRPVVRKPDNGGEKYVPPDDPDLASAGGSAGG [r6_405_TrROS] | 2.87 ± 0.11 | 4.36 ± 0.22 | 3.97 ± 0.16
SAMKITEITYDKETNTITITVEIKLPPGVKKIKLKLFIDGAEIEEITMEVDEETGTVRITLKIRIPKDASAG [r14_244_TrROS_Hall] | 4.9 ± 0.88 | 6.06 ± 0.78 | > 6
SAGGSAGGSAGMKKNEKLITELTFEGPDVYVKITIEKTFDPEGNKIYFKAKIEVFAPGELSAGGSAGGSAGG [r11_237_TrMRF] | 2.83 ± 0.097 | 4.06 ± 0.075 | 3.67 ± 0.1
SAGGMKPGETWRIRTPGKTITIEVKDGKITVTVEENGKKKTIVVEAETEEEALEALRSIPGLEIEKVSAGGS [r16_583_TrROS_Hall] | 1.73 ± 0.05 | 1.32 ± 0.13 | 1.61 ± 0.16
SAGGSAKKKIKIKVKNKDGSVYELEFDEENGIVKITYKDGKKEELSVEELKKLPLPKNITEVEIVPSAGGSA [r15_1043_TrROS_Hall] | 1.57 ± 0.043 | 2.59 ± 0.036 | 2.25 ± 0.059
SAGGSAGGMTSDKPVLPALIRVYYPNEGREETIPVLLGEDMPLEEALRIARELAHPDAKAEILNSAGGSAGG [r6_440_TrMRF] | -0.183 ± 0.093 | 0.624 ± 0.053 | 0.395 ± 0.06
SSISIPGLTEEKAAELAKRLRELFPGAEVKTTTFPEKKVVVVDVTLPVVDADGKLVGTVKLRLVLVVEDDSA [r9_378_TrMRF] | 4.6 ± 0.19 | 4.55 ± 0.21 | 4.84 ± 0.34
SAGSVEIKESSLPDSTIITITIPYTSPEEAPERIERLLKELGLSENVQVIEVKYEPSPPVVTVKIKIESAGG [r19_186_JUSTAS] | 2.41 ± 0.077 | 3.21 ± 0.09 | 2.99 ± 0.12
SAGGPYYEWEIKLPDNKTISITMRRNPENGRPQHTVTIHDPEKGKPVKEHPFDSPEEAEELIEEGLLSAGGS [r8_450_TrROS] | -0.0517 ± 0.16 | 0.445 ± 0.21 | 0.287 ± 0.35
SAGGSAGGSMVEEFLASLPPDATVTVDPSTGVVTVSLPAEGRTLTLTVDTATGTVTETERRPESAGGSAGGS [r12_82_JUSTAS] | 1.56 ± 0.028 | 1.762 ± 0.0075 | 1.71 ± 0.027
SAGFSITVDYEPEKGLWTVTFTSPPSTSPLSPEEVKETAREIAEKQGIKYELIEISREGNTWTMTIKVLSAG [r14_556_JUSTAS] | 4.25 ± 0.18 | 5.48 ± 0.082 | 5.39 ± 0.13

Sequence | folding stability dG unfold [1] [kcal/mol] | folding stability dG unfold [2] [kcal/mol] | folding stability dG unfold [3] [kcal/mol]
SAGNIMVQVEPDPGGTVKVEIMFMIPLPNGWPIMIQIEWEVRVDEDGEPELKMPIEIFFSEEALDKGFSAGG [r19_63_TrROS] | 2.06 ± 0.11 | 1.99 ± 0.029 | 2.09 ± 0.13
SAGGSAASVVEKTLSPDGTLFVTIKVDPEKKSVPFSITTPDGTPVTVTLPPNTTKTVRVPLGEAALSAGGSA [r15_336_JUSTAS] | -0.678 ± 0.28 | -0.553 ± 0.27 | -0.39 ± 0.15
SAGGSAGGSAGGMKVIKIEDVEKVKAEAKKNGIKVTYKKENDGEIIAYIEKIPKSIKNKSAGGSAGGSAGGS [r10_218_JUSTAS] | -0.832 ± 0.34 | 0.449 ± 0.14 | -0.00327 ± 0.23
SMLKEIPITVPEEGEVVTVNIEELAKEQGLDPNNVTVTVTSSGPGKVYKITISSNGITITEVGNVPTALLSA [r9_819_JUSTAS] | 0.546 ± 0.04 | 0.684 ± 0.098 | 0.717 ± 0.081
SAGGSAGGSGGVIDIPVYGEDGEKFIASAPKEVIEKAIKEGKPIEVYVVDDGKIIKKFTISTGSAGGSAGGS [r12_991_TrMRF] | -0.0801 ± 0.092 | -0.0658 ± 0.17 | 0.0354 ± 0.12
SAGGSAGGSAGGSGSITITYSSDGDKYSATFTVPDGTVVTVPNMSVDEAKKVAEKFLKSSAGGSAGGSAGGS [r4_383_JUSTAS] | -0.389 ± 0.14 | 1.08 ± 0.12 | 0.659 ± 0.095
SAGGSAGGSAGGKPVKLEISFDKETNTITIKAVDEENKTVTETTIKVTFLPPPPPPPPKSAGGSAGGSAGGS [r10_331_TrROS_Hall] | 1.09 ± 0.12 | 2.14 ± 0.37 | 2.03 ± 0.48
SAGGSAGGSMKKIKIEVYNKDGSKTELPLSEILKLYDFDAEEIKKFLEKLFPKDVKFKIEIEGSAGGSAGGS [r12_399_TrMRF] | 1.33 ± 0.061 | 2.53 ± 0.05 | 2.31 ± 0.17
SAGGSAGGSMLVLHLPNGKEIPIPPGEFSEDTGVEDIAARIPPEVRRLRIYNEDGTEVEVPIDSAGGSAGGS [r20_161_TrMRF] | 0.00521 ± 0.4 | 0.479 ± 0.39 | 0.32 ± 0.18
SAGGSAGGMIVTTTFLPGNLKVVNVTTTYETTDPSGTTTSTTTTSTTIEYIPPVPVDINNPLLISAGGSAGG [r6_920_JUSTAS] | 1.41 ± 0.071 | 1.24 ± 0.038 | 1.41 ± 0.14
SAGGSAGGSAGGGMSTAVLKIDDKWVPVRIYPDSVVIEYPDGSTKTISLSEIPENLIELPSAGGSAGGSAGG [r7_748_JUSTAS] | 2.2 ± 0.12 | 0.547 ± 0.07 | 1.43 ± 0.15
SVEKAREALEEAGFEVTRIEVREDGTVRVTVRRDGKLVEIELTVEPPPPVEVVEEEPEVRVERRYSAEDLSA [r9_2_TrROS_Hall] | 0.499 ± 0.15 | -0.34 ± 0.42 | 0.212 ± 0.35
SAGGGPEEIRRAAEALAAELAAELGLEVVEVEVEVREDGTVTVRITVRLPDGSKLEITLTLPAGAPLSAGGS [r8_175_TrROS_Hall] | 2.03 ± 0.05 | 1.15 ± 0.038 | 1.65 ± 0.073
SAGQWVKFTLPIYKMKYEKDKDGKPEIKEMKPIPKFDIEARVDEDGNVRIRFGGNEREFPPGESLEDLISAG [r14_909_TrROS] | 0.0407 ± 0.21 | 0.482 ± 0.28 | 0.478 ± 0.24
SAGGSAGGSAPRVRYRRRVLVYFPADGSVVPVVLEVSPGPLTLRLDLPAASFPPVRIAPLGSAGGSAGGSAG [r3_454_TrMRF] | 1.28 ± 0.066 | 2.58 ± 0.098 | 1.98 ± 0.14
SAGGSAGGSGMTLEEIAERLKEEYNAPEVKVTRDPSKPVYTVTVTLADGSTKTYTIYVPEELGSAGGSAGGS [r12_114_JUSTAS] | 2.63 ± 0.047 | 3.73 ± 0.051 | 3.44 ± 0.092
SAGGSAGGGKVKVELEPLEDDSYRLRITVELPDGSKIEKPVILPSNVPPELSAEKVAEEILKKESAGGSAGG [r6_895_TrMRF] | 0.378 ± 0.089 | -0.117 ± 0.34 | 0.228 ± 0.24
SAGGMVRITRDEDGILRVELFVEGTPEEAEEEAARLVRLLEELGFEEVRVEREPFGDGVVVTIEAKASAGGS [r8_113_TrMRF] | 2.55 ± 0.11 | 2.86 ± 0.083 | 2.74 ± 0.076
SAGGSMTLEELKNMTVEELRELLGEDAEVTVDEETGTITIRVPGKEVTIEVDEETGEVKIVEVKPVSAGGSA [r2_470_TrROS_Hall] | 3.31 ± 0.24 | 2.27 ± 0.13 | 2.89 ± 0.26
SAGGSAGGSAGSSLPVLETREEGDLVYLLFPETNLLLVVRRGPGEVEVPSAVRVPPDVPLSAGGSAGGSAGG [r17_30_JUSTAS] | 0.805 ± 0.022 | 1.03 ± 0.047 | 0.958 ± 0.063
SAGGSAGGSAGGMPADEKVTTSPEIVTLPNGTRVVVTKSTSPDPSVSSTSVTVLPPNVPPSAGGSAGGSAGG [r11_338_JUSTAS] | 0.393 ± 0.029 | 1.38 ± 0.027 | 1.05 ± 0.066
